The record followed here is patent CN116199772A (YIDAO BIOTECHNOLOGY SUZHOU CO LTD, dated 2023).

Holding throughout (assay): indirect ELISA, cross-reaction on 9 HPV type antigens
Background: In an ELISA, binding on a coated surface is turned into a signal by an enzyme label.

One experiment addresses T1, HPV 45亚型抗原 (Human papillomavirus type 45, UniProt P36741 30-539).
T1 construct: Called only 'HPV 45 antigen'
T1 sequence: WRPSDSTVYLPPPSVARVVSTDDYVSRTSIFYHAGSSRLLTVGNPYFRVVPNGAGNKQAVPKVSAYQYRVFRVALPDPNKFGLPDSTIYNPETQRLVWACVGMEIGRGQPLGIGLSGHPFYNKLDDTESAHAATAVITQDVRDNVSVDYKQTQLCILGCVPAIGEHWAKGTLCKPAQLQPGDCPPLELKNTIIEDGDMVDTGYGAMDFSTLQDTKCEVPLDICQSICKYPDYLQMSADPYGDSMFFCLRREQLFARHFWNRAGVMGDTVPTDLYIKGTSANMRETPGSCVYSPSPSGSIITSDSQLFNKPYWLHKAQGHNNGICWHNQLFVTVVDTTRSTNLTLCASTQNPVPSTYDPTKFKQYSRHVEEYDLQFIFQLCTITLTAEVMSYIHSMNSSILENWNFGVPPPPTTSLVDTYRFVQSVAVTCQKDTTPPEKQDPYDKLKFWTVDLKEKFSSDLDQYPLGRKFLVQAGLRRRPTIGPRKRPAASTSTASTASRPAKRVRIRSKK

For the next experiment, the target named is T2, HPV 58亚型抗原 (Human papillomavirus type 58, UniProt P26535 27-524).
T2 construct: Called only 'HPV 58 antigen'
T2 sequence: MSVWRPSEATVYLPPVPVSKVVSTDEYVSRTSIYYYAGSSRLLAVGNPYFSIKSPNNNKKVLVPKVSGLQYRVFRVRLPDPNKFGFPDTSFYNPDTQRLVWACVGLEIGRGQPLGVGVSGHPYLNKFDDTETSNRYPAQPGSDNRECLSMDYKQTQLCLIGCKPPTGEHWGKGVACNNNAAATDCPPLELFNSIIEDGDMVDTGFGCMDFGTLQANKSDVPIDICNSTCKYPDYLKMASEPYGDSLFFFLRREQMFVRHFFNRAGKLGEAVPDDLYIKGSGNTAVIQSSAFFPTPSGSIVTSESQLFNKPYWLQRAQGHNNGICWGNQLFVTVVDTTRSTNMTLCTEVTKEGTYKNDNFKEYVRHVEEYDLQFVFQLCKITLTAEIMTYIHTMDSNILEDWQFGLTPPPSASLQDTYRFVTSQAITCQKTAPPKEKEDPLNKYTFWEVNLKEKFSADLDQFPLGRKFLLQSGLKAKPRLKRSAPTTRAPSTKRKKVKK

The target of another experiment is T3, HPV 33亚型抗原 (Human papillomavirus type 33, UniProt P06416 1-499).
T3 construct: Called only 'HPV 33 antigen'
T3 sequence: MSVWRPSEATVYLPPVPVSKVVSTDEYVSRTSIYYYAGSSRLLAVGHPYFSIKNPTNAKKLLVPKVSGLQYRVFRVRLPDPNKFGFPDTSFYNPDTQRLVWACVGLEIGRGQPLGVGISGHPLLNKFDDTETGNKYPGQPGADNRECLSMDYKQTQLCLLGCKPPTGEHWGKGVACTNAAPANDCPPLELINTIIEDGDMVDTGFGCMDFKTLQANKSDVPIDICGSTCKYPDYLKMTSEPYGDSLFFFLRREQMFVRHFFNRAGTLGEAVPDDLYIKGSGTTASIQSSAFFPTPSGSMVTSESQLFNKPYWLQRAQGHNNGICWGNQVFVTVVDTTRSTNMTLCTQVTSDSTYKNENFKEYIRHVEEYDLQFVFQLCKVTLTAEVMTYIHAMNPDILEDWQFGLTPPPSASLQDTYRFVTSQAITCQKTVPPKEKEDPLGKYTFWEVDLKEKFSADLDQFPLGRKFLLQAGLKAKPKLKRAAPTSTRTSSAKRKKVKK

Another experiment concerns the target T4, HPV11亚型抗原 (Human papillomavirus type 11, UniProt P04012 1-501).
T4 construct: Called only 'HPV11 antigen'
T4 sequence: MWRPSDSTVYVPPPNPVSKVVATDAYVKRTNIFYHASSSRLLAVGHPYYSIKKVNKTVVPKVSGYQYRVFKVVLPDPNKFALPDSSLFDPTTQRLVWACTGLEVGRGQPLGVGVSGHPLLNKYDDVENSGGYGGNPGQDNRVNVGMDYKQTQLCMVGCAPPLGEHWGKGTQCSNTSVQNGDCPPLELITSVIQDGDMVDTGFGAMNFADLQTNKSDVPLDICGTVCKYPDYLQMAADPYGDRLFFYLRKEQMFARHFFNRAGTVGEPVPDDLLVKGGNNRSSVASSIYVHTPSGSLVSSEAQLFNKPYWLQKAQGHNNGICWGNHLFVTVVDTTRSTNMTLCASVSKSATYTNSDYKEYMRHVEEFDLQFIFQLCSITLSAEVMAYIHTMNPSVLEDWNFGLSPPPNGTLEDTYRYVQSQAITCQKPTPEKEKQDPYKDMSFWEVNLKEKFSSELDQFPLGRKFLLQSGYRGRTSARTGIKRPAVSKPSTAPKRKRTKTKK

Another experiment deals with T5, HPV18亚型抗原 (Human papillomavirus type 18, UniProt P06794 62-568).
T5 construct: Called only 'HPV18 antigen'
T5 sequence: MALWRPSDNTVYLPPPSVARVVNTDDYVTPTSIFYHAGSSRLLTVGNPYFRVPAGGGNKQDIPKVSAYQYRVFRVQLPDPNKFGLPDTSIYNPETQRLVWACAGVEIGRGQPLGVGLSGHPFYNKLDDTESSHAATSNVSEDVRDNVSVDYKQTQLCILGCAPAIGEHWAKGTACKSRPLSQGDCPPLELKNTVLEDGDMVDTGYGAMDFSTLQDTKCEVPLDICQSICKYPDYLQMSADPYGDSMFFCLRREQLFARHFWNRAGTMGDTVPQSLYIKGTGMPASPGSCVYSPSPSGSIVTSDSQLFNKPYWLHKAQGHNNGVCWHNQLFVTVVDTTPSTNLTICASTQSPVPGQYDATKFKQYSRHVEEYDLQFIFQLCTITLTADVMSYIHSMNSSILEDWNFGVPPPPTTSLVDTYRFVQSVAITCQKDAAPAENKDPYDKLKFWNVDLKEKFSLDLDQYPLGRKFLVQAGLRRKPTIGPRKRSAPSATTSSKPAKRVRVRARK

The next experiment deals with T6, HPV 16亚型抗原 (Human papillomavirus type 16, UniProt P03101 1-505).
T6 construct: Called only 'HPV 16 antigen'
T6 sequence: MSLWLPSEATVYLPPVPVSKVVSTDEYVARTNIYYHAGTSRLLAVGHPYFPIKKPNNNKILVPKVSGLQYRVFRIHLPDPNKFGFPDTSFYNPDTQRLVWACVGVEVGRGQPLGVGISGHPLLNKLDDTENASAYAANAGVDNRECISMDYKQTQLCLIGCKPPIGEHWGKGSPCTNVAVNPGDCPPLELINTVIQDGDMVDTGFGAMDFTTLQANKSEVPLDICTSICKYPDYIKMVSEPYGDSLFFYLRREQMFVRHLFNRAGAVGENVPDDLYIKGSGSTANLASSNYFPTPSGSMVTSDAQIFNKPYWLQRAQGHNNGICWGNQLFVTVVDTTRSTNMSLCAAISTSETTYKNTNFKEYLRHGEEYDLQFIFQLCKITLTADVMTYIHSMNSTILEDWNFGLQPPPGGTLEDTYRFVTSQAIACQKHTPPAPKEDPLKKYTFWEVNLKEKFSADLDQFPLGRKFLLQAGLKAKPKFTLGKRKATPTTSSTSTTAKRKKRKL

B1: HPV31型单克隆抗体(7H9) (antibody, V domains shown)
VH: QIQLVQSGPELKKPGETVKISCKASGYTFTNYGMNWVKQAPGKGLKWMGWINTYTGEPTYADDFKGRFAFSLETSANTAYLQITNLKNEDMATYFCARRITMEYYYGLDCWGQGTSVTVSS
VL: QAVVTQESALTTSPGETVTLTCRSSTGAVTTSNYANWVQEKPDHLFSGLIGGTNNRVPGVPARFSGSLIGDKAALTITGAQTEDEAIYFCALWYSNHWVFGGGTKLTVL
notes: also called 7H9抗体; HPV31型(7H9)鼠单抗
On to B1, for which the binding result with HPV 45亚型抗原, with HPV 58亚型抗原, in the experiment with HPV 33亚型抗原, in the experiment with HPV11亚型抗原, in the experiment with HPV18亚型抗原 and in the experiment with HPV 16亚型抗原 was “no binding (tested: 抗原1μg/ml包被; 杂交瘤细胞上清20倍稀释)” in each case.
